{
  "source": "paper PMC2920065",
  "key": {"[1]": {"biological_target": "GST fusion of the wild type DEP domain of RGS7 (R7-DEP) (bovine) (UniProt O46470)", "test": "pull-down"}, "[2]": {"biological_target": "GST-DEP F107A/F110A double mutant (bovine) (UniProt O46470)", "test": "pull-down"}},
  "data": [
    {"substance": "Gβ5 D259A mutant in complex with the RGS7^249-469 construct (from UniProt O46470 249-469)", "values": [
      {"measurement": "increase of the fraction bound against wild-type Gβ5", "setting": "[1]", "result": 10, "unit": "%"}
    ]},
    {"substance": "Gβ5 F284A mutant in complex with the RGS7^249-469 construct (from UniProt O46470 249-469)", "values": [
      {"measurement": "fold reduction of binding against wild-type Gβ5", "setting": "[1]", "result": 5, "unit": "fold"}
    ]},
    {"substance": "Gβ5 I282A/I283A double mutant in complex with the RGS7^249-469 construct (from UniProt O46470 249-469)", "values": [
      {"measurement": "fold reduction of binding against wild-type Gβ5", "setting": "[1]", "result": 5, "unit": "fold"}
    ]},
    {"substance": "complex of wild-type Gβ5 with the RGS7^249-469 construct (from UniProt O46470 249-469)", "values": [
      {"measurement": "percent bound", "setting": "[1]", "result": "> 50", "unit": "%"},
      {"measurement": "percent bound", "setting": "[2]", "result": 12, "unit": "%"}
    ]}
  ]
}
